The values below come from patent publication US20250154283A1 (published 2025).

Test [1] has as its target T1, biotinylated human VWF cysteine knot (CK) domain construct (human, biotin on the in vitro biotinylation tag (residue not stated); one N-glycan).
T1 construct: Disulfide-linked homodimer; also called biotinylated human VWF CK domain; human VWF CK domain construct
T1 chain: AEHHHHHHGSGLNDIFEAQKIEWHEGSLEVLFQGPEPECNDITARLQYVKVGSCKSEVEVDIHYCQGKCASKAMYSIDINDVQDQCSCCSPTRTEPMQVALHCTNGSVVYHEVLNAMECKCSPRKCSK
The test can be described thus: SPR, scFv captured on anti-SV5, pH 7.4. Background: In SPR one partner is held on a chip, and binding of the other changes the refractive index at the surface.

Test [2] has as its target T2, biotinylated human VWF cysteine knot (CK) domain construct (human, UniProt P04275 2724-2813, biotinylated in vitro (BirA) on the biotinylation tag; one N-glycan).
T2 construct: Expressed in HEK293 EBNA cells; disulfide-linked homodimer; also called human VWF CK; human VWF CK domain; not shown: in vitro biotinylation tag, HRV-3C site and 3 VWF residues before the CK domain
Briefly: SPR, scFv captured via anti-SV5, CK domain injected, pH 5.5, apparent Kd.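 Further: scFvs from crude yeast supernatants captured on chip-bound anti-SV5 antibody, Kd computed as koff divided by kon, dimeric CK construct likely makes affinity appear higher.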

Test [3] has as its target T2, biotinylated human VWF cysteine knot …. Briefly: SPR, scFv captured via anti-SV5, CK domain injected, pH 7.4, apparent Kd.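 Further: scFvs from crude yeast supernatants printed on an amine-coupled anti-SV5 lawn, Kd computed as koff over kon, likely overestimating affinity because the CK construct is dimeric.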
Excerpt: Briefly, a sensor chip was activated and coupled with an anti-SV5 mouse monoclonal antibody using amine coupling. The soluble scFvs in crude yeast supernatants were printed on the anti-SV5 lawn. […] From the measured association (kₒₙ) and dissociation (koff) rate constants, an apparent equilibrium dissociation constant (Kd=koff/kₒₙ) was estimated. Due to the dimeric state of the CK construct and consequent possibility for simultaneous binding of captured scFv to both monomers in the CK dimer, the SPR setup was expected to overestimate the binding affinity.
Test [4] concerns the target T3, biotinylated cynomolgus monkey VWF cysteine knot (CK) domain construct (cynomolgus monkey, biotinylated in vitro (BirA) on the biotinylation tag; one N-glycan).
T3 construct: Expressed in HEK293 EBNA cells; disulfide-linked homodimer; also called cyno VWF CK; cyno VWF CK domain; not shown: in vitro biotinylation tag, HRV-3C site and 3 VWF residues before the CK domain
T3 chain: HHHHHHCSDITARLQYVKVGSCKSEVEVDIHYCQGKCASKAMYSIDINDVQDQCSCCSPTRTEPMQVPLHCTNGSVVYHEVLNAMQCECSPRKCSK
The description is as above.

B1: 8226_Lib8_scFv (scFv, not shown: small tags and cut ends)
scFv: EVQLVESGGGLVQPGRSLRLSCAASGFNFHNYDMHWVRQAPGKGLEWVSAISGGAVSTDYADSVEGRFTISRDNAKNSLYLQMNSLRAEDTAVYYCARSSWYGGQIDFWGQGTLVTVSSSGGSTITSYNVYYTKLSSSGTDIQMTQSPSSLSASVGDRVTITCRASQDISGWLAWYQQKPGKAPKLLIYAASSLQDGVPSRFSGSGSGTDFTLTISSLQPEDVATYYCQQSYRIPSTFGGGTKVEIK
Turning to B1, in test [1], the binding result is “binds”.

B2: 9312_Lib8_scFv (scFv)
scFv: EVQLVESGGGLVQPGRSLRLSCAASGFSLSTYDMHWVRQAPGKGLEWVSAISSSGDTRDYADSVEGRFTISRDNAKNSLYLQMNSLRAEDTAVYYCARAFWGGDAFDIWGQGTMVTVSSSGGSTITSYNVYYTKLSSSGTDIQMTQSPSSLSASVGDRVTITCRASQTIGYWLAWYQQKPGKAPKLLIYGASTLEGGVPSRFSGSGSGTDFTLTISSLQPEDVATYYCQHSYSAPPTFGGGTKVEIK
notes: VH-linker-VL; not shown: C-terminal 3xFLAG and SV5 tags
B2: the results for the Kd in test [2], in test [3] and in test [4] were 21.6 nM, 6.56 nM and 1.8 nM, respectively.

B3: 17561_Lib6_scFv (scFv)
scFv: EVQLVQSGAEVKKPGASVKVSCKASGYTFTDLPISWVRQAPGQGLEWMGWINPYTGDTNYAQKLQGRGTMTTDPSTSTAYMELRSLRSDDTAVYYCARDGVILGYYYYYGMDVWGQGTTVTVSSSGGSTITSYNVYYTKLSSSGTESALTQPASVSGSPGQSITISCTGTDLGSKSVSWYQQHPGKAPKLMIYDNFNRPSGVSNRFSGSKSGNTASLTISGLQAEDEADYYCSSRTVSGTYVFGGGTKLTVL
notes: as for B2
On to B3, for which the Kd in test [2] came out at 1.79 nM; in test [3], 9.25 nM; in test [4], 5.24 nM.

B4: Lib1_P1_A5_scFv (scFv)
scFv: QVQLVQSGAEVKKPGASVKVSCKVSGDTLSNYAIHWVRQAPGKGLEWMGGINPNAGTTIYAQKFQGRVTMTEDTSTDTAYMELSSLKSEDTAVYYCARDSSSWCPVGYYYYYMDVWGKGTTVTVSSSGGSTITSYNVYYTKLSSSGTDIQMTQSPSSVSASVGDRVTITCRASQSIGDFLAWYQQKPGKAPKLLIYDASHLQTGVPSRFSGSGSGTDFTLTISSLQPEDFANYYCQQTSTIPPTFGGGTKVEIK
notes: as for B2
Take B4: the results for the Kd in test [2], in test [3] and in test [4] were 5.02 nM, 6.37 nM and 1.74 nM, respectively.

B5: 4761_Lib8_scFv (scFv)
scFv: EVQLVESGGGLVQPGRSLRLSCAASGFTFSSDTMHWVRQAPGKGLEWVSAISSSGDHTDYADSVEGRFTISRDNAKNSLYLQMNSLRAEDTAVYYCAREGLRGYYFDYWGQGTLVTVSSSGGSTITSYNVYYTKLSSSGTDIQMTQSPSSLSASVGDRVTITCRASQGISGHLAWYQQKPGKAPKLLIYAASALQSGVPSRFSGSGSGTDFTLTISSLQPEDVATYYCQQSHSLPWTFGGGTKVEIK
notes: as for B2
In the case of B5, the figures for the Kd in test [2], in test [3] and in test [4] were 1.33 nM, 7.56 nM and 2.67 nM, respectively.

B6: 1675_Lib1_scFv (scFv)
scFv: QVQLVQSGAEVKKPGASVKVSCKVSGVTLTSSAISWVRQAPGKGLEWMGGITPIFGTPIYAQKFQGRVTMTEDTSTDTAYMELSSLKSEDTAVYYCATDYGYPFWAFDIWGQGTMVTVSSSGGSTITSYNVYYTKLSSSGTDIQMTQSPSSVSASVGDRVTITCRASQGIYSALAWYQQKPGKAPKLLIYESSKRPSGVPSRFSGSGSGTDFTLTISSLQPEDFANYYCEQYASSPPTFGGGTKVEIK
notes: as for B2
As to B6, the Kd in test [2] was determined as 0.03 nM; in test [3] it was 0.077 nM; in test [4] it was 0.052 nM.

B7: 9621_Lib8_scFv (scFv, not shown: small tags and cut ends)
scFv: EVQLVESGGGLVQPGRSLRLSCAASGFSFSMYAMHWVRQAPGKGLEWVSAISPSGDATDYADSVEGRFTISRDNAKNSLYLQMNSLRAEDTAVYYCARGMQDYGHYYYYYMDVWGKGTTVTVSSSGGSTITSYNVYYTKLSSSGTDIQMTQSPSSLSASVGDRVTITCRASQDISTSLAWYQQKPGKAPKLLIYGASSLETGVPSRFSGSGSGTDFTLTISSLQPEDVATYYCQQGYIAPRTFGGGTKVEIK
As for B7, in test [1], the binding result is recorded as “binds”.

B8: Lib1_P1_A9_scFv (scFv)
scFv: QVQLVQSGAEVKKPGASVKVSCKVSGDTLSSYGIHWVRQAPGKGLEWMGGSIPSFGTAIYAQKFQGRVTMTEDTSTDTAYMELSSLKSEDTAVYYCTSEGPWLPFFSFDYWGQGTLVTVSSSGGSTITSYNVYYTKLSSSGTDIQMTQSPSSVSASVGDRVTITCRASQGISRNLAWYQQKPGKAPKLLIYKASSLASGVPSRFSGSGSGTDFTLTISSLQPEDFANYYCQQSFSTPVTFGGGTKVEIK
notes: as for B2
B8: the Kd in test [2] turned out to be 0.018 nM; in test [3], 0.051 nM; in test [4] it was 0.205 nM.

B9: Lib1_P1_G3_scFv (scFv)
scFv: QVQLVQSGAEVKKPGASVKVSCKVSGYTSRQYIHWVRQAPGKGLEWMGWVTPIFGTTNYAQKFQGRVTMTEDTSTDTAYMELSSLKSEDTAVYYCAREWTGTTAFDIWGQGTLVTVSSSGGSTITSYNVYYTKLSSSGTDIQMTQSPSSVSASVGDRVTITCRASQDIGHYLAWYQQKPGKAPKLLIYAASNRASGVPSRFSGSGSGTDFTLTISSLQPEDFANYYCQQGYSAPYGFGGGTKVEIK
notes: as for B2
B9: the Kd was found to be 0.029 nM in test [2], 0.073 nM in test [3] and 0.032 nM in test [4].

B10: 1374_Lib8_scFv (scFv, not shown: small tags and cut ends)
scFv: EVQLVESGGGLVQPGRSLRLSCAASGVDFSTYAMHWVRQAPGKGLEWVSAISSSGAYTDYADSVEGRFTISRDNAKNSLYLQMNSLRAEDTAVYYCATDRGPFSGYGTQGWFDPWGQGTLVTVSSSGGSTITSYNVYYTKLSSSGTDIQMTQSPSSLSASVGDRVTITCRASQTIRSYLAWYQQKPGKAPKLLIYGASDLQSGVPSRFSGSGSGTDFTLTISSLQPEDVATYYCQQYANFPITFGGGTKVEIK
On to B10, for which the binding result in test [1] is recorded as “binds”.

B11: 1405_Lib8_scFv (scFv, not shown: small tags and cut ends)
scFv: EVQLVESGGGLVQPGRSLRLSCAASGVDFSTYAMHWVRQAPGKGLEWVSAISSSGAYTDYADSVEGRFTISRDNAKNSLYLQMNSLRAEDTAVYYCATDRGPFSGYGTQGWFDPWGQGTLVTVSSSGGSTITSYNVYYTKLSSSGTDIQMTQSPSSLSASVGDRVTITCRASRDITSYLAWYQQKPGKAPKLLIYHASTLEAGVPSRFSGSGSGTDFTLTISSLQPEDVATYYCQQYGDFPPTFGGGTKVEIK
For the molecule B11, the binding result in test [1] is recorded as “binds”.

B12: Lib4_P2_H3_scFv (scFv, not shown: small tags and cut ends)
scFv: QVQLQESGPGLVKPSQTLSLTCTVSGSTFGDYAWSWIRQPPGKGLEWIGYINHIGNADYNPSLKSRVTMSVDTSKNQFSLKVNSVTAADTAVYYCARDGVESPEVPNYYYYGMDVWGQGTTVTVSSSGGSTITSYNVYYTKLSSSGTEIVMTQSPATLSLSPGERATLSCRASHSIGSNLAWYQQKPGQAPRLLIYDATNRAPGIPARFSGSGSGTDFTLTISSLEPEDFAVYYCQQSYTNPTFGGGTKVEIK
In the case of B12, in test [1], the binding result is “binds”.

B13: 9301_Lib8_scFv (scFv, not shown: small tags and cut ends)
scFv: EVQLVESGGGLVQPGRSLRLSCAASGFNFHNYDMHWVRQAPGKGLEWVSAISGSGYTADYADSVEGRFTISRDNAKNSLYLQMNSLRAEDTAVYYCAKSHSSGWSSAFDIWGQGTMVTVSSSGGSTITSYNVYYTKLSSSGTDIQMTQSPSSLSASVGDRVTITCRASQTIGYWLAWYQQKPGKAPKLLIYDASVPESGVPSRFSGSGSGTDFTLTISSLQPEDVATYYCQQTLSSPWTFGGGTKVEIK
In the case of B13, the binding result in test [1] is reported as “binds”.
